Consider 8 sequences from publication PMC5612765.

Data set [1] relates to T1, Fis (His-tagged) (Pseudomonas putida), ORF:eb421da7.
T1 sequence: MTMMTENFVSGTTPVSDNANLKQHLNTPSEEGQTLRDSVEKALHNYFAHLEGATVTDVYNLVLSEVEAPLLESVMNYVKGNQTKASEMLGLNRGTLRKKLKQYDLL
As to the kind of experiment: EMSA with competition. Particulars: EMSA: 24 mM Tris/HCl pH 7.5, 50 mM KCl, 10 mM MgCl2, 1 mM CaCl2, 0.1 mM EDTA, 5% glycerol, 0.05 ug/ul BSA, 0.05 ug/ul salmon sperm DNA, 20 min room …. (In EMSA bound probe runs differently from free probe, usually more slowly.)

Data set [2] shares this test system. As to the kind of experiment: DNase I footprinting. The note with it: EMSA: 24 mM Tris/HCl pH 7.5, 50 mM KCl, 10 mM MgCl2, 1 mM CaCl2, 0.1 mM EDTA, 5% glycerol, 0.05 ug/ul BSA, 0.05 ug/ul salmon sperm DNA, 20 min room ….

“AGGATCCGAAACGCTTGGCTAAGGTACAAATATCAATGTGACATTACATTGCCGATTGTTTAGGATGGCATGTATAAGCTGAATAGTTTGGAGGTCAGGCAATTCCAAAAAGTTATAGACGGAATATTGACGTCAAAAACGTCAAGAGATCATCGACATAGTTCCGCCTGAAGTGGCTAGCAAGCGCCGCTCTGGCAGGGAAGTACC (double strand) [Fis-A1-Fis-A2mut fragment]”: in data set [1], the binding entry is recorded as “binds more weakly”.
With “AGGATCCGAAACGCTTGGCTAAGGTACAAATATCAATGTGACATTACATTGCCGATTGTTTAGGATGGCATGTATAAGGTCAATAGTTTGGCAGTCAGGCAATTCCAAAAAGTTATAGACGGAATATTGACGTCACCCACGTGCCGAGATCATCGACATAGTTCCGCCTGAAGTGGCTAGCAAGCGCCGCTCTGGCAGGGAAGTACC (double strand) [Fis-A1mut-Fis-A2 fragment]”, the binding entry in data set [1] is recorded as “binds more weakly”.
For “GGTACTTCCCTGCCAGAGCGGCGCTTGCTAGCCACTTCAGGCGGAACTATGTCGATGATCTCTTGACGTTTTTGACGTCAATATTCCGTCTATAACTTTTTGGAATTGCCTGACTGCCAAACTATTGACCTTATACATGCCATCCTAAACAATCGGCAATGTAATGTCACATTGATATTTGTACCTTAGCCAAGCGTTTCGGATCCT (double strand) [lapA Fis-A1/Fis-A2 fragment WT]”, the binding result in data set [1] and in data set [2] was “binds” each time.
“TGCTGATAAGGGTTATCACGCCCTGGTGCTGGAGCAGCTGGCCAATGTTCGCCTTGAATCGGTGTTGAGTAAACAATTCTACGTGCTTCATTTTCACCAGACTTAGCGGGGCAATGATTCTGACAGGCCTGATCCAGCCATCATCCGGCTTGTTGCAGCATAGCCTGCCACTCAGCCAAGGCATGCAAGGGCTTTGGGTTCCAGCTTAGTCACTGTCAGTAAACAGGCGCTGGATCCA (double strand) [Fis-A7mut fragment]”: the binding result in data set [1] is on record as “binds more weakly”.
With “TGCTGATAAGGGTTATCACGCCCTGGTGCTGGAGCAGCTGGCCAATGTTCGCCTTGAATCGGTGTTGAGTAAACAATTCTACGTGCTTCATTTTCACCAGACTTAGCGGGGCAATGATTGTTTCATTTTTGATCCAGCCATCATCCGGCTTGTTGCAGCATAGCCTGCCACTCAGCCAAGGCATGCAAGGGCTTTGGGTTCCAGCTTAGTCACTGTCAGTAAACAGGCGCTGGATCCA (double strand) [lapA Fis-A7 fragment WT]”, the binding entry in data set [1] and in data set [2] was “binds” throughout.
On to “TTGAATTCATGCAAGGGCTTTGGGTTCCAGCTTAGTCACTGTCAGTAAACAGGCGCTGGTTTGTTGGCGCATATCTGTGGCTTGTTAGTCAAAATTCATCTATAGAGTGCGGATTCTTGCCTTCTTGCATTCAATATCCGCAAGCGATTTTCAATGATCGGGATACCATTATTCACGCACTCGTCGGTCATCTCTTTGATTTGCGACACATAGCTGCTTGTGACTCGGATCCAAA (double strand) [lapA Fis-A5/Fis-A6 fragment WT]”, for which the binding entry in data set [1] and in data set [2] was “binds” throughout.
On to “TTTGGATCCGAGTCACAAGCAGCTATGTGTCGCAAATCAAAGAGATGACCGACGAGTGCGTGAATAATGGTATCCCGATCATTGAAAATCGCTTGCGGAGGCTGACTGGGAGAAGGCAAGAATCCGCACTCTATAGATGAATTTTGACTAACAAGCCACAGATATGCGCCAACAAACCAGCGCCTGTTTACTGACAGTGACTAAGCTGGAACCCAAAGCCCTTGCATGAATTCAA (double strand) [Fis-A5mut-Fis-A6 fragment]”, for which the binding entry in data set [1] is on record as “binds more weakly”.
Same read-out and setting: with “TTTGGATCCGAGTCACAAGCAGCTATGTGTCGCAAATCAAAGAGATGACCGACGAGTGCGTGAATAATGGTATCCCGATCATTGAAAATCGCTTGCGGATATTGAATGCAAGAAGGCAAGAATCCGCACTCTATACACGTAGGCCGACTAACAAGCCACAGATATGCGCCAACAAACCAGCGCCTGTTTACTGACAGTGACTAAGCTGGAACCCAAAGCCCTTGCATGAATTCAA (double strand) [Fis-A5-Fis-A6mut fragment]” the entry was “binds more weakly”.
